Assay results taken from patent US20260137799A1, “ANTI-MUC1* ANTIBODY DRUG COMPLEXES AND USES THEREOF” (Minerva Biotechnologies Corporation, priority 2023, published 2026).

Legend:
[1] = target: PSMGFR C-10 peptide (SEQ ID NO: 3) (Homo sapiens, UniProt P15941); assay: ELISA binding to PSMGFR C-10 peptide; details: ELISA
From the text: Cancer selective anti-MUC1* antibodies bind to a membrane proximal conformational epitope within the MUC1* extracellular domain, as described in WO 2020/146902.
The 3C2B1 epitope was mapped more precisely with additional PSMGFR peptide variants (FIGS. 2A, 2B).

[2] = system: MUC1 after cleavage by MMP9; assay: Binding to MUC1-expressing cells after MMP9 cleavage; format: cell-based
Method: The binding strength of anti-MUC1* antibodies is evaluated by determining their ability to displace NMF7-AB (a MUC1* ligand) from MUC1* immobilized on the plastic surface of a 96-well plate. Because the cancer-selective MUC1* epitope is a conformational epitope, cancer-selective anti-MUC1* antibodies should not recognize MUC1* on a western blot, where the epitope is linearized. MMP9 is a protease that cleaves MUC1 to generate MUC1*. MMP9 is a predictor of poor prognosis for breast cancers. Some cancer-selective anti-MUC1* antibodies, particularly breast cancer selective antibodies, should bind to cells engineered to express MUC1 after they are contacted with MMP9 to convert the MUC1 to MUC1*.

[3] = target: MUC1*45 (UniProt P15941 1110-1255); assay: cell-based or functional assay
[4] = system: H1975 lung cancer cells (H1975-wt); assay: Antibody internalization (pHrodo Deep Red), H1975-wt; format: cell-based, human; details: H1975 cells
Method: (§1) Antibodies C2 and 3C2B1 were tested for their ability to be internalized by H1975 lung cancer cells (H1975-wt) and H1975 cells that were engineered to express high levels of a recombinant MUC1* polypeptide with a 45 amino acid extracellular domain (H1975-MUC1*45). In contrast to the T47D breast cancer cells, H1975-wt cells internalized 3C2B1 faster than they internalized C2 (FIGS. 4A1-4A28, 4C1-4C28 and 4E). Two (2) hours post incubation with H1975-wt cells, […] the cells had internalized C2. […] Similar to the T47D cells, MUC1*45 expression increased the internalization rate of C2 and decreased the internalization rate of 3C2B1 (FIGS. 4B1-4B28, 4D1-4D28 and 4E).
(§2) Antibodies C2 and 3C2B1 were coupled to a pH sensitive fluorophore using the pHrodo Deep Red TFP Ester kit (Thermo cat #P35356), according to manufacturer instructions. Cancer cells were seeded at ˜50,000 cells/well onto μ-Slide 8-well tissue culture-treated, chambered coverslip wells (Ibidi 80806) in their recommended media with 10% FBS. Cells were cultured for 48 hours. Slides were transferred into microscope chamber (37° C.—5% CO2) and equilibrated for ˜30 minutes. The pHrodo Deep Red coupled antibody was then diluted to a concentration of 200 to 300 μg/mL into pre-warmed media supplemented with 10% FBS. Media was removed from the chamber slides and the diluted antibodies were separately added. Fluorescent (655 nm) and phase contrast images at were collected every 10 min for 12h or 16 h with a Leica Thunder Live Cell 3D microscope.
(§3) Internalization of the fluorescently labeled antibodies was quantified as follows. Images were imported into ImageJ. The selection tool was used to draw a region of interest (ROI) on the image. The integrated pixel density (mean gray-scale value×area) was then measured by the ImageJ software. Positively-stained cells were manually counted and the integrated pixel density was divided by the number of positive cells to yield “Pixel Intensity per positive cell”.

[5] = system: H1975-MUC1*45 cells; assay: Antibody internalization (pHrodo Deep Red), H1975-MUC1*45; format: cell-based, human; details: H1975-MUC1*45 vs H1975-wt
Method: as §1, §2, §3

[6] = system: T47D; assay: xCELLigence impedance cytotoxicity, T47D; format: cell-based, human; details: Example 9 (FIGS. 35-36); average over batches for DXd ADCs; read-out: IC50 for killing of breast cancer T47D-wt cells
Method: (§4) An xCELLigence RTCA MP Instrument (Agilent) was used to assess real-time killing of target cancer cells). In the xCELLigence system, target cancer cells, which are adherent, are plated onto electrode array 96-well plates. Adherent cells insulate the electrode and increase the impedance. The number of adherent cancer cells is directly proportional to impedance. […] Therefore, increasing impedance reflects the growth of the cancer cells and decreasing impedance reflects the killing of the cancer cells.
(§5) Target Cancer cells (Table 9) were seeded onto a multi-electrode well plate at a density of 5000 cells/well (100 μL of a 50,000 cells/mL stock) and incubated for 24 hr in a 37° C./5% CO2 incubator. ADCs were prepared as a 2× solution in corresponding growth media and 100 μL of each concentration was added to target cells. As a positive control (100% cell killing) cells were treated with either 1% triton or 1 μM Taxol instead of ADC. After 40-120 hours incubation in a 37° C./5% CO2 incubator cell killing was assessed. In this assay, impedance is measured in real-time. When the adherent cancer cells are killed and come off the electrode surface, impedance (insulation) decreases.

[7] = system: HPAF-II; assay: xCELLigence impedance cytotoxicity, HPAF-II; format: cell-based, human; details: Example 9 (FIG. 35); average; listed as 3C2B1-MC-GGFG-AM-DXd; read-out: IC50 for killing of HPAFII-wt pancreatic cancer cells
Method: as §4, §5

[8] = system: HPAF-II MUC1*; assay: xCELLigence impedance cytotoxicity, HPAF-II MUC1*; format: cell-based, human; details: Example 9 (FIG. 35); average; read-out: IC50, HPAFII cells engineered to express MUC1*45
Method: as §4, §5

[9] = system: CFPAC1-wt pancreatic cancer cell line; assay: xCELLigence impedance cytotoxicity, CFPAC1; format: cell-based, human; details: Example 9 (FIGS. 35-36); read-out: IC50, CFPAC1-wt pancreatic cancer cells
Method: as §4, §5
(§6) To directly compare the C2 and 3C2B1 anti-MUC1* antibodies as ADC targeting domains, a panel of MUC1* positive cancer cell lines representing different cancer types were treated with C2-deruxtecan versus 3C2B1-deruxtecan (FIG. 35) or C2-MC-VA-PAB-exatecan versus 3C2B1-MC-VA-PAB-exatecan (FIG. 36). In some cases, the cancer cells were engineered to express high levels of MUC1*45.

[10] = system: H2110-wt lung cancer cell line; assay: xCELLigence impedance cytotoxicity, H2110; format: cell-based, human; details: Example 9 (FIGS. 35-36); read-out: IC50, lung cancer H2110-wt cells
Method: as §4, §5, §6

Sequence of PSMGFR C-10 peptide (SEQ ID NO: 3) (P15941 1110-1144 limits assumed): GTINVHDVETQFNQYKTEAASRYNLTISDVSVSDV
Sequence of MUC1 after cleavage by MMP9 (P15941 1120-1255 limits assumed): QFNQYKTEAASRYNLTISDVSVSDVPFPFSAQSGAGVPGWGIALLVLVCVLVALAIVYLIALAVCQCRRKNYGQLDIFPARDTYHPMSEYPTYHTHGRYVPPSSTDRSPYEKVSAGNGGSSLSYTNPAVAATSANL

B1: 18G12: anti-MUC1* monoclonal antibody that bound to the PSMGFR peptide (antibody, V domains shown)
VH: QVQLVQSGAEVKKPGASVKVSCKASGYTFTGYFLYWVRQAPGQGLEWIGGINPDNGGIDFNEKFRNRATLTVDKSSSTAYMELSSLRSEDTAVYYCTLLIGNYWGQGTLVTVSS
VL: DVVMTQTPSSLSVTPGQPASISCKSSQSLLHSDGKTYLIWLQQKPGQSPQRLIYLVSKLDSGVPDRFSGSGSGTDFTLKISRVEAEDVGVYYCCQGTHFPWTFGQGTKVEIK
Does not bind C-10 [1]: 0 | Recognizes MUC1 after cleavage by MMP9 [2]: 0

B2: 28F9: anti-MUC1* monoclonal antibody that bound to the PSMGFR peptide (antibody, V domains shown)
VH: QVQLVQSGAEVKKPGASVKVSCKASGYTFTGYFLYWVRQAPGQGLEWIGGIHPSNGDTDFNEKFKNRATLTVDISSSTAYMELSSLRSDDTAVYYCARLIGVYWGQGTLVTVSS
VL: DVVMTQSPLSLSVTLGQPASISCKSSQSLLHSDGKTYLIWLQQRPGQSPRRLIYLVSKLDSGVPDRFSGSGSGTDFTLKISRVEAEDVGVYFCCQGTHFPWTFGQGTKVEIK
modifications: humanized form
Does not bind C-10 [1]: 0 | Recognizes MUC1 after cleavage by MMP9 [2]: 0

B3: 3C2B1-deruxtecan (antibody, V domains shown)
VH: EVMLVESGGGLVKPGGSLKLSCAASGITFSTYTMSWVRQTPEKRLEWVATISTGGDKTYYSDSVKGRFTISRDNAKNNLYLQMSSLRSEDTALYYCARGTTAMYYYAMDYWGQGTSVTVSS
VL: DIVLTQSPASLAVSLGQRATISCRASKSISTSDYNYIHWYQQKPGQPPKLLIYLASNLESGVPARFSGSGSGTDFTLNIHPVEEEDAATYYCQHSRELPLTFGAGTKLELK
modifications: deruxtecan (MC-GGFG-AM-DXd) on reduced cysteine thiols of the antibody, sites not stated; deruxtecan (MC-GGFG-AM-DXd) on reduced cysteine thiols of the antibody, sites not stated; average DAR 9.2
IC50, killing of H1975 lung cancer cells engineered to express MUC1*45 (xCELLigence) [3]: 343 nM | IC50, killing of T47D breast cancer cells engineered to express more MUC1*45 (xCELLigence) [3]: 48 nM | internalization rate of the ADC compared to antibody alone [4]: about the same rate as the 3C2B1 antibody alone | effect of MUC1*45 expression on internalization rate [5]: inhibited | IC50 [6]: 61 nM | IC50 [7]: > 303 nM | IC50 [8]: 160 nM | IC50 [9]: 34 nM | IC50 [10]: 90 nM
